# Measurements reported in patent publication US7763418B2, “Detection of Rho proteins” (Cytoskeleton, Inc., priority 2005, dated 2010).
# Legend:
# [1] = system: RhoA; test: RhoA G-LISA of calpeptin treated HeLa cell lysates; format: cell-based; conditions: calpeptin 30 minutes
# Description: Active Rho protein (typically 7-15 μg total cell lysate or 1-5 ng of constitutively active recombinant protein) were either added directly to the effector bound G-LISA plate (Rac1 and Cdc42 G-LISAs) or diluted with an equal volume of Binding Buffer (20% PEG 8000, Sigma, St. Louis, Mo.) prior to adding to effector bound plates (RhoA G-LISA). The reactions were incubated for 30 minutes at 4° C. on a microtiter titer plate shaker after which wells were washed once with 200 μl of PBST (PBS pH 7.2, 0.05% Tween-20) and immediately treated with 200 μl of Antigen Presenting Buffer (1% trichloroacetic acid (TCA)) for 2-5 minutes at room temperature. Wells were then washed three times with 200 μl each of PBST and primary antibody is added typically at 1 μg/ml (RhoA specific), 0.25 μg/ml (Rac1 specific), 1 μg/ml (Cdc42 specific) and incubated at room temperature for 45 minutes (incubation at 4° C. gave similar results). […] After three washes each of 200 μl PBST the activated Rho proteins are detected using absorbance or luminescence detection as described below. […]
# Referring to FIG. 10, 25 μl of serum starved or Calpeptin treated (RhoA activated) Hela cell lysate at concentration of 4, 2, 1, 0.5, 0.25, 0.12, 0.06 mg/ml were mixed with same volume of Binding Buffer and subjected to RhoA G-LISA assay followed by absorbance detection. […] All readings had buffer only background subtracted. […]
# [2] = system: RhoA; test: GST-Rhotekin-RBD pull-down assay of calpeptin treated HeLa cell lysates; format: cell-based; conditions: calpeptin 30 minutes, 500 μg lysate
# [3] = target: T1, RhoA (63L) (Homo sapiens, UniProt P61586, Q63L); test: G-LISA on effector-GBD plates with constitutively active RhoA; format: binding; conditions: 5 ng constitutively active RhoA; detection with the plate's GTPase specific antibody
# T1 construct: purchased Cytoskeleton Inc. R6301
# Description: (§1) Effector-GBD peptide (ROCK1, POSH or WASP, see Table 2) was diluted in coating buffer (PBS pH 7.2, plus 1 mM EDTA) to a final concentration 0.05 mg/ml and 5 μg of peptide was added to the wells of maleimide plates (Corning Inc., Catalog #2510). Plates were incubated at 21° C. for 2 hours, washed twice in PBS pH 7.2. Plates were blocked for 1 hour at room temperature with milk (typically 0.1-5%, depending upon effector-GBD). After two washes with PBS (pH 7.2), Lyophilization Buffer was added to each well (5% sucrose and 1% dextran) and the plates were lyophilized and stored desiccated at 4° C. […]
# (§2) Active Rho protein (typically 7-15 μg total cell lysate or 1-5 ng of constitutively active recombinant protein) were either added directly to the effector bound G-LISA plate (Rac1 and Cdc42 G-LISAs) or diluted with an equal volume of Binding Buffer (20% PEG 8000, Sigma, St. Louis, Mo.) prior to adding to effector bound plates (RhoA G-LISA). […] After three washes each of 200 μl PBST the activated Rho proteins are detected using absorbance or luminescence detection as described below.
# Referring to FIG. 2A, lysis buffer only (Blank), 5 ng of RhoA (63L), Cdc42 (61L) or Rac1 (61L) were subjected to a RhoA G-LISA assay as detailed in materials and methods, and RhoA signal was detected by luminometry as described in materials and methods. […]
# [4] = target: T2, Rac1 (61L) (Homo sapiens, UniProt P63000, Q61L); test: G-LISA on effector-GBD plates with constitutively active Rac1; format: binding; conditions: 5 ng constitutively active Rac1; detection with the plate's GTPase specific antibody
# T2 construct: His; purchased Cytoskeleton Inc. R6101
# Description: as §1, §2
# Referring to FIG. 2B, lysis buffer only (Blank), 5 ng of Rac1 (61L), or RhoA (63L) were subjected to a Rac1 G-LISA assay as detailed in materials and methods (Example 2), and Rac1 signal was detected by absorbance at 490 nm as described in materials and methods (Example 2). […]
# [5] = target: Rac1 (Homo sapiens, UniProt P63000); conditions: read-out: published affinity Rac1:PAK; cited from earlier work
# [6] = target: T3, Cdc42 (61L) (Homo sapiens, UniProt P60953, Q61L); test: G-LISA on effector-GBD plates with constitutively active Cdc42; format: binding; conditions: 5 ng constitutively active Cdc42; detection with the plate's GTPase specific antibody
# T3 construct: His; purchased Cytoskeleton Inc. C6101
# Description: as §1, §2
# Referring to FIG. 2C, lysis buffer only (Blank), 5 ng of Cdc42 (61L) or Rac1 (61L) were subjected to a Cdc42 G-LISA assay as detailed in materials and methods (Example 2), and Cdc42 signal was detected by absorbance at 490 nm as described in materials and methods (Example 2).
# T1 sequence (P61586 whole entry Q63L): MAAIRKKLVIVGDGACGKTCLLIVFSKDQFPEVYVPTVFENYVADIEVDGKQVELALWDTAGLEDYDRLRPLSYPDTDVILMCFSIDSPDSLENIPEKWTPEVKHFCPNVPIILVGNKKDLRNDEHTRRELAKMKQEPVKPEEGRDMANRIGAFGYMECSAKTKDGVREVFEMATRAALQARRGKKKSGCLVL
# T3 sequence (P60953 whole entry Q61L): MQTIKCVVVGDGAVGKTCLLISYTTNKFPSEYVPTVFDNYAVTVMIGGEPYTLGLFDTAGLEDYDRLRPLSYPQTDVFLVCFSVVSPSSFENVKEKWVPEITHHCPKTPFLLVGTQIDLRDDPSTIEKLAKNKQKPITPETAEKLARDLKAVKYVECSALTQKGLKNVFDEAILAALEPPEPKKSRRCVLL
molecule,measurement,setting,value
CCCC[C@@H](C=O)NC(=O)[C@H](CC(C)C)NC(=O)OCc1ccccc1 [calpeptin],"RhoA fold activation versus serum starved, G-LISA",[1]; lysate 0.25 mg/ml to 2 mg/ml (6.25-50 μg),approximately 2 fold
same,"RhoA fold activation versus serum starved, G-LISA",[1]; lysate 4 mg/ml (100 μg),1.7 fold
same,"RhoA fold activation above serum starved lysate, pull-down densitometry",[2],approximately 2 fold
"rhotekin-Cys: synthetic rhotekin-GBD, three internal cysteines replaced, cysteine at carboxy terminal (protein) ILEDLNMLYIRQMALSLEDTELQRKLDHEIRMRDGAEKLLAALSQREQALEATKSLLVSNSRILSYMGELQRRKEAQVLEKTGRRCS",G-LISA signal above background (buffer only),[3],6 fold
"WASP: Histidine-tagged GBD of human WASP (amino acids 201-321), carboxy terminal cysteine, linked to maleimide plate (protein, left off: small tags and cut ends, Histidine-tagged GBD of human WASP (amino acids 201-321), carboxy terminal cysteine, linked to maleimide plate) DIQNPDITSSRYRGLPAPGPSPADKKRSGKKKISKADIGAPSGFKHVSHVGWDPQNGFDVNNLDPDLRSLFSRAGISEAQLTDAETSKLIYDFIEDQGGLEAVRQEMRRQEPLPPPPPPSRC",G-LISA signal above background (buffer only),[4],did not give a signal above background
"POSH: Histidine-tagged GBD of human POSH (amino acids 291-363) linked to maleimide plate (protein, UniProt Q7Z6J0 1-888, looked up) E3 ubiquitin-protein ligase …: MDESALLDLLECPVCLERLDASAKVLPCQHTFCKRCLLGIVGSRNELRCPECRTLVGSGVEELPSNILLVRLLDGIKQRPWKPGPGGGSGTNCTNALRSQSSTVANCSSKDLQSSQGGQQPRVQSWSPPVRGIPQLPCAKALYNYEGKEPGDLKFSKGDIIILRRQVDENWYHGEVNGIHGFFPTNFVQIIKPLPQPPPQCKALYDFEVKDKEADKDCLPFAKDDVLTVIRRVDENWAEGMLADKIGIFPISYVEFNSAAKQLIEWDKPPVPGVDAGECSSAAAQSSTAPKHSDTKKNTKKRHSFTSLTMANKSSQASQNRHSMEISPPVLISSSNPTAAARISELSGLSCSAPSQVHISTTGLIVTPPPSSPVTTGPSFTFPSDVPYQAALGTLNPPLPPPPLLAATVLASTPPGATAAAAAAGMGPRPMAGSTDQIAHLRPQTRPSVYVAIYPYTPRKEDELELRKGEMFLVFERCQDGWFKGTSMHTSKIGVFPGNYVAPVTRAVTNASQAKVPMSTAGQTSRGVTMVSPSTAGGPAQKLQGNGVAGSPSVVPAAVVSAAHIQTSPQAKVLLHMTGQMTVNQARNAVRTVAAHNQERPTAAVTPIQVQNAAGLSPASVGLSHHSLASPQPAPLMPGSATHTAAISISRASAPLACAAAAPLTSPSITSASLEAEPSGRIVTVLPGLPTSPDSASSACGNSSATKPDKDSKKEKKGLLKLLSGASTKRKPRVSPPASPTLEVELGSAELPLQGAVGPELPPGGGHGRAGSCPVDGDGPVTTAVAGAALAQDAFHRKASSLDSAVPIAPPPRQACSSLGPVLNESRPVVCERHRVVVSYPPQSEAELELKEGDIVFVHKKREDGWFKGTLQRNGKTGLFPGSFVENI",G-LISA signal above background (buffer only),[3],barely above background
"PAK-GST: GST-tagged GTPase Binding Domain of human PAK1 (amino acids 68-151), Rac1/Cdc42 effector (protein, left off: a dimerising Fc or GST) KEKERPEISLPSDFEHTIHVGFDAVTGEFTGMPEQWARLLQTSNITKSEQKKNPQAVLDVLEFYNSKKTSNSQKYMSFTDKSAEC",Kd,[5],~20 nM
"ROCK1-GBD: Histidine-tagged GBD of human ROCK1 (amino acids 847-1024), carboxy terminal cysteine, linked to maleimide plate (protein, left off: small tags and cut ends) EAEQYFSTLYKTQVKELKEEIEEKNRENLKKIQELQNEKETLATQLDLAETKAESEQLARGLLEEQYFELTQESKKAASRNRQEITDKDHTVSRLEEANSMLTKDIEILRRENEELTEKMKKAEEEYKLEKEEEISNLKAAFEKNINTERTLKTQAVNKLAEIMNRKDFKIDRKKANTC",G-LISA signal above background (buffer only),[4],did not give a signal above background
same,G-LISA signal above background (buffer only),[6],did not give a signal above background
